Assays:
[1] = molecular target: H2A–H2B (H2A T118C labeled with Alexa-488 refolded with H2B) (UniProt P04911); experiment: FRET or BRET
[2] = molecular target: H3–H4 (H3 refolded with labeled H4 E63C) (UniProt P61830); experiment: FRET or BRET

Sequence of UniProt P04911 (P04911 2-132, chain 1 of 2): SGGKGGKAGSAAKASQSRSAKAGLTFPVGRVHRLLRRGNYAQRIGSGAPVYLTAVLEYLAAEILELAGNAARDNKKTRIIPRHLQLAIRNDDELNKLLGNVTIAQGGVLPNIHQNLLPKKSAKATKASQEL
Sequence of UniProt P04911 (P02294 2-131 T119C, chain 2 of 2, further chain): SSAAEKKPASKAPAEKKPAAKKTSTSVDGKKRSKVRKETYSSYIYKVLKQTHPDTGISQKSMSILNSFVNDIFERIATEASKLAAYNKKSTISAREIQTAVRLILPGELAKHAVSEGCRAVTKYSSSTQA

Kd [1]: 305 nM | Kd [2]: 196 nM
Substance: Scm3, full length, labeled with Atto-647N at cysteine 41 (from UniProt Q12334 1-223) (natural protein)

Reference: paper PMC4027189
